For five molecules, Kd, dH and stoichiometry N results are on record in PMC3725505.

The target in the test is Kelch domain of human Keap1 (residues 321-609) (human), Q14145. The experiment in a line: ITC. In general terms: In ITC the heat of successive injections is recorded.
Kelch domain of human Keap1 (residues 321-609) (human), Q14145, sequence (Q14145 321-609): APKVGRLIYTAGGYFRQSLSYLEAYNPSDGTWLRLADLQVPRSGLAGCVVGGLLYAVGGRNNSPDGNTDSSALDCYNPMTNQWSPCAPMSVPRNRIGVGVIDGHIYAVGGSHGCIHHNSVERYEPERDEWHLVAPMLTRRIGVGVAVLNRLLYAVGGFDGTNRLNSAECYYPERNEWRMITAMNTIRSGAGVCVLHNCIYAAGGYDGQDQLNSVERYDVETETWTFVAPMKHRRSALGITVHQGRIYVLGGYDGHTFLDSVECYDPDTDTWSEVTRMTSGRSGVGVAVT

Molecule FAQLQLDPETGEFLPIQPAQ (modifications not checked) [NRF2 site 1 E78P peptide (20-mer)] displayed a Kd of 7 nM and a dH of -16.8 kcal/mol.

In turn, LSSKEVDPSTGELQSLQMPE (modifications not checked) [p62 peptide (20-mer)] returned a Kd of 1300 nM.

In turn, FAQLQLDEETGEFLPIQPAQ (modifications not checked) [NRF2 site 1 peptide (20-mer)] registered a Kd of 23 nM, a dH of -17 kcal/mol and a stoichiometry N of 1.08.

Take ANGNAENEENGEQEADNEVD (modifications not checked) [PTMA isoform 1 peptide (20-mer)]: the Kd worked out at 11600 nM, the dH is -14.7 kcal/mol and the stoichiometry N is 1.07.

The molecule ANGNANEENGEQEADNEVDE (modifications not checked) [PTMA isoform 2 peptide (20-mer)] yielded a Kd of 2620 nM, a dH of -17.3 kcal/mol and a stoichiometry N of 1.05.

The Kd is the concentration at which binding is half-saturated. A low value points to higher affinity. In general, stoichiometry N refers to the number of molecules, sites or subunits per partner or assembly.
